The target in assay [1] is T1, epidermal growth factor receptor (EGFR), endogenous in NHBE, DHBE and A549 cells (human, UniProt P00533 25-1210).
T1 construct: whole, on cells; Endogenous receptor; also called EGF Receptor
The assay can be described thus: anti-EGFR (AF231) immunoprecipitation from NHBE lysate, LC-MS; cells stimulated with 30 ng/ml reduced IL-33-01 for 10 min; IL-33 not detected in complex with EGFR.

Assay [2] deals with T2, RAGE-Fc (R&D Systems #1145-RG) (UniProt Q15109 23-344, limits assumed).
T2 construct: Bought reagent; not shown: Fc part of the bought fusion (detected with anti-human IgG HRP)
Put plainly: ELISA: biotinylated oxIL-33 on streptavidin plate, RAGE-Fc at 10 µg/mL, anti-human IgG HRP. The protocol: (§1) Plates were washed 3× with 200 μl PBS-T (PBS+1% (v/v) Tween-20) and blocked with 300 μl/well blocking buffer (PBS with 1% BSA (Sigma, A9576)) for 1 hour. […] Plates were washed with 200 μl PBS-T three times. […] Plates were washed 3× with PBS-T and developed with TMB, 100 μl/well (Sigma, T0440). The reaction was quenched with 50 μl/well 0.1M H₂SO₄. Absorbance was read at 450 nm on the Cytation Gen5 or similar equipment.
(In an ELISA, binding on a coated surface is turned into a signal by an enzyme label.)

Assay [3] concerns the target T2, RAGE-Fc (R&D Systems #1145-RG). Put plainly: ELISA, FIG. 7A: biotinylated HMGB1 on streptavidin plate, RAGE-Fc. The protocol:
as §1

Assay [4] deals with T3, EGFR-Fc (R&D Systems #344-ER-050) (UniProt P00533 25-645).
T3 construct: Bought reagent; not shown: Fc part of the bought fusion (detected with anti-human IgG HRP)
Put plainly: ELISA: biotinylated HMGB1 on streptavidin plate, EGFR-Fc with untagged RAGE (Sino Biological 11629-HCCH) at 10 µg/mL, anti-human IgG HRP. As for the experimental part: as §1

T2 sequence (Q15109 23-344 limits assumed): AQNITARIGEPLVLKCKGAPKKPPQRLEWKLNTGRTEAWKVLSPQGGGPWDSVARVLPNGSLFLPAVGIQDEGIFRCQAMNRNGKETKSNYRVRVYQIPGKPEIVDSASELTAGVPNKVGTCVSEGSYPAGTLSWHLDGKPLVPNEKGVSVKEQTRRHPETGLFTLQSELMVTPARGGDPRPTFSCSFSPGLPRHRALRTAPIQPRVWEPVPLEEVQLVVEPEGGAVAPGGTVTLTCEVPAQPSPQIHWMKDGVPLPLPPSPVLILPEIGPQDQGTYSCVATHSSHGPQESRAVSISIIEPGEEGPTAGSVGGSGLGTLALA

B1: Untagged IL33-01 (ligand)
chain: SITGISPITEYLASLSTYNDQSITFALEDESYEIYVEDLKKDEKKDKVLLSYYESQHPSNESGDGVDGKMLMVTLSPTKDFWLHANNKEHSVELHKCEKPLPDQAFFVLHNMHSNCVSFECKTDPGVFIGVKDNHLALIKVDSSENLCTENILFKLSET
notes: Reduced wild type form; also called reduced IL-33; WT IL-33
Take B1: in assay [1], the binding result was “no binding”.

B2: Avitag_IL-33-01 (oxidised IL-33) (ligand)
chain: MHHHHHHHHHHAAGLNDIFEAQKIEWHEAAIEGRSITGISPITEYLASLSTYNDQSITFALEDESYEIYVEDLKKDEKKDKVLLSYYESQHPSNESGDGVDGKMLMVTLSPTKDFWLHANNKEHSVELHKCEKPLPDQAFFVLHNMHSNCVSFECKTDPGVFIGVKDNHLALIKVDSSENLCTENILFKLSET
modifications: biotinylated on the Avitag with BirA; oxidised (disulphide bonded) form
notes: also called oxIL-33; biotinylated oxidised N-terminal tagged His10/Avitag IL33-01
As to B2, the binding result in assay [2] is “binds”.

B3: HMGB1 (R&D systems 1690-HMB-050), biotinylated (ligand, UniProt P09429 1-215, looked up)
chain: MGKGDPKKPRGKMSSYAFFVQTCREEHKKKHPDASVNFSEFSKKCSERWKTMSAKEKGKFEDMAKADKARYEREMKTYIPPKGETKKKFKDPNAPKRPPSAFFLFCSEYRPKIKGEHPGLSIGDVAKKLGEMWNNTAADDKQPYEKKAAKLKEKYEKDIAAYRAKGKPDAAKKGVVKAEKSKKKKEEEEDEEDEEDEEEEEDEEDEDEEEDDDDE
modifications: biotinylated via free amines (EZ link Sulfo-NHS-LC-Biotin)
notes: Immobilised on streptavidin plates in the ELISA of section 10; called a known RAGE ligand / bona fide RAGE agonist
Regarding B3, the binding result is on record as “binds” in assay [3] and “no binding (tested: 10 µg/mL)” in assay [4].
